# From the nanobody polyreactivity screen of Harvey et al. (2022)
# Assay: yeast display, Sf9 membrane polyspecificity reagent, FACS + sequencing; frameworks hold sequencing errors
# Method in brief: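 A synthetic nanobody library was expressed on Saccharomyces cerevisiae BJ5465 by galactose induction for 36–48 hours. The library was stained for 1 hour at 4 °C with 10% biotinylated, detergent-solubilized Sf9 membrane reagent and enriched with streptavidin microbeads before FACS. Low and high (top ~1%) gates were set on anti-HA fluorescence for expression and streptavidin fluorescence for reagent binding, and each polyreactivity label reflects the gate of origin.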
row,Sequence,polyreactivity (PSR sort gate)
1,QVQLVESGGGLVQAGGSLRLSCAASGGTFVPNAMGWYRQAPGKERELVAAITWSGARTYYADSVKGRFTISRDNAKNTVYLQMNSLKPEDTAVYYCAAVYNYYIVYEYYYWGQGTQVTVSS,high polyreactivity
2,QVQLVESGGGLVQAGGSLRLSCAASGFTFGYYAMGWSRQAPGKESELLATITSSGASTYADSVKGRFTISRDNAKNTVYLQMNSLKPEDTAVYYCAADRLPSYWSWYGYDYWGQGTQVTVSS,high polyreactivity
3,QVQLVESGGGLVQAGGSLRLSCAASGFIFRAYAMGWYRQAPGKERELVAAISRSGSRTYYADSVKGRFTISRDHAKNTVYLQMNSLKPEDTAVYYCAADHGSLLYDYWGQGTQVTVSS,high polyreactivity
4,QVQLEESGGGLVQAGGSLRLSCAASGGTFAQYVMGWYRQAPGKERELVAAISRTGGRTYYADSVKGRFTISRDNAKNTVYLQMNSLKPEDTAVYYCARVYTSYGTPWTNYDYWGQGTQVTVSS,high polyreactivity
5,QVQLVESGGGLVQAGGSLPLSCAASGSTFAVYAMGWYRQAPGKERELVAAISFSGSTYADSVKGRFTISRDNAKNTVYLQMNSLKPEDTAVYYCAKEYRVFGWWYTKGDYWGQGTQVTVSS,low polyreactivity
6,QVQLVESGGGLVQAGGSLRLSCAASGRTSRRNAMGWYRQAPGKERELVAAISGSGGRTNSADSVKGRFTISRDNAQNTVYLQMNSLKPEDTAVYYCNVLTRYYLGYDYWGQGTQVTVSS,high polyreactivity
7,QVQLVESGGGLVQAGGSLRLSCAASGSISVYNAMGWYRQAPGKVRELVAAISWSGGRTSYADSVKGRFTISRDHAKNTVYLQMNSLKPEDTAVYYCAADELTGLWDEDYWGPGTQVTVSS,low polyreactivity
8,QVQLVESGGGVVQAGGSLRVSCAASGRIFYGNAMGWYRQAPGKERELVAVISSGGSTYYADSVKGRFTISRDNAKNTVYFQMNSLKPEDTAVYYCAAQVRKYKDGSFRYHYWGQGTQVNVSS,high polyreactivity
9,QVQLVESGAGIVQAGGSLRLSCAASGLTFTYYAMGWYRQAPGKERELVAAISRSGTGTYYADSVKGRFTISRDNAKNTVYLQMNSLTAEDTAVYYCNAVVRTYGYDYWGQGTQVTVSS,high polyreactivity
10,QVQLVESGGGLVQAGGSLRLSCAASGSMFEGYAMGRYLQAPGKVRELVAAMTWSSGSTYYADSVKGRFTISRDNAKNTVYLQMNSLKPEETAVYSCAVDGGDFSSYGYWGQGTQVTVSS,low polyreactivity
11,QDQLVESGGGLVQAGGSLRISCAASGITLEYNAMGGYRQAPGKERELVATIRSGGSTNYADSVKVRFTISRDNANNTVYLQMNSLKPEDTAVYYCAANHNTEYDWGQGTQVTVSS,high polyreactivity
12,QVQLVESGGGLVQAGGSLRLSCAASGFISDGNYMGWYRQAPGKERELVAAISSGATTHYADSVKGRFTISRDNAKNTVYLQMNSLKPEDTAVYYCNRGDDWRYDYWGQGTQVTVSS,low polyreactivity
13,QVQLVESVGGLDQAGGSLRLSCAASGSTFGGYAMGWYRQAPGKERELVAAISSSGTSTYYADSVKGRFTISRDNAKNTVYLQMNSLKPEDNAVYYCATDFSFFSRFDYWGQGTQVTVSS,low polyreactivity
14,QVQLVESGGGLVQSGDSLRLSCAASGIILLSYAMGWYIHAPGKERELVAAITSGGGTNYADSVKGRFTISRDNAKNTVYLQMNSLKPEDTAVYYCAVGAYAGLYYYWGQGTQVTVSS,low polyreactivity
15,QVQLQESGGGQVQAGGSLRLSCAASGTIFLYAFMGWYRQAPGKERELVAAIDVGTTTNYADSVKGRFTISRDNAKNTVYLQMNSLKPEDTAVYYCAAPYVSWDYRYYYWGQGTQVTVSS,low polyreactivity
16,QVQLVESGGGLVQAGGSLRLSCAASGSIFSIYAMGWSRQAPGTERELVATITRNSGRTYYADSVKGRFTISRDNAKNTVYLQMNSLKPEDTAVYYCAASVKIISYLVHSEFLGGELDYWGQGTQVTVSS,low polyreactivity
17,QVQLVESGGGLVQAGGSLRLSSAASGSTFSDYAMGWYRQAPGKERELVAGITGGGGTYYADSVKGRFTISRDNAKNTVYLQMNSLKPEDTAVYYCAAGRRHGFGYWGQGTQVTVSS,low polyreactivity
18,QVQLVESVGGLFQAGGSIRLSCAASGRTFFVYAMGWYRQAPGKERVLVAVISFTVDSTFYEDSVKGRFTISRDNAKNTVYLQMNSLKPEDTAVYYCAADVRRVFSKYSYYLYFDLDYWGQGTQVTVSS,low polyreactivity
19,QVQLVESGGGLVQAGGSLRLSCAASGFILRIYTMGWYRQAPGKERELVAAINWSGGRTYYADSVKGRFTISRDNAKNTVYLHMNSLKPEDTAVYYCAAVYGVSVSKYYYWGQGTQVTVSS,high polyreactivity
20,QVQLVESRGGLVQAGGSLRLSCAASGYILWRYAMGWYRQAPGKERELVASISSGVSTNYADSVKGRFTISRDNAKNTVYLQMYSLKPEDTAVYYCKTGRWLLGSMEYWGQGTEVTVSS,low polyreactivity
21,QVQLVESGGGLVQAGGSLRLSCAASGSTIQQYAMGWYRQAPGKEREFVAAISWRGGRTYYADSVKGRFTISRDKAKNTVYLQMNSLKPEDTAVYYCAVDPSIYRLSAYYYDYWGQGTQVTVSS,low polyreactivity
22,QVQLVESGGGLFQAGGSLRLSCAASGFTFPDYAMGSYRQAPGKERELVAAISSDGSTYDADSVKGRFTISRDIAKTTVYLQMNSLKPEDTAVYYCAAYVVWLYGYAYWGQGTQVTVSS,low polyreactivity

row,Sequence,polyreactivity (PSR sort gate)
1,QVQLVESGGGLVQAGGSIRLICAASGPIFSSYAIGCYRQAPGKERELVAAITSSGTSTYYADSVKGRFTISRDYAKNTVYVQMTSLKPEDTAVYYCAARRARTGDYWGQGTQVTLSS,high polyreactivity
2,QFQLVESGGGIVQAGGSLRLSCAASGFTFVYYAMGWYRQAPGKERQLVAAITRSAGSTYYADSVKGRFTISRDNAKNTVYLQMNSLKPEDTAVYYCAALNSRYSKAQRMDYWGQGTQVTVSS,low polyreactivity
3,QVQLVESGGGLVQAGGSLRLICAASGSIFYRYAMGWYRQAHGKEREFVAAITYSSRTTYYADSVQGRFTISRDNAKNTVYLQMNSLKPEDTAVYYCAAELSSSYYRRAMDYCGQGTQVTVSS,high polyreactivity
4,QVQLVESGGGLVQAGGSLRLSCAASGITFKYYTMGWYRPAPGKERELVAAITSRAGRTYADSVKGRFTISRDNAKNTVYLQMNSLKPEDTAVYYCDKKWRGNTYLYDYWGQGTQVTVSS,high polyreactivity
5,QVQLVESGGGLVQAGGSLRLSCAASGFIFYRYARGWYRQAPGKERELVAVISRGGNTYYADSVKGRFTISRDNAKNTVYLQMNSLKPEDTAVYYCNKRLRDSYRLYYYWGQGTQVTVSS,high polyreactivity
6,QVQLVESGGGLVQAGGRLRLSCAASGFIFYFYAMGWYRQAPGKERELVAAISWSGGSPYYADSVKGRFTISRDNAKNTVYLQMNSLKPEDTAVYYCAADTRTSYYNDDYDYWGQGTQVTVSS,low polyreactivity
7,QVQLVESGGGLVQAGGSLRLSCAASGRTFGGYAMGWSRQAPGKERELVAAISWSGGRTYYADSVKGRFTISRDNAKNTVYLQMNSLKPEDTAVYYCAATSGRAFKYDYWGQGTQVTVSS,high polyreactivity
8,QVQLVESGGGLVQAGGSLRLSCAASGSTFRKNAMGWYRQAPGKERELVAAITYSGGGTYYADSVKGRFTISRDNAKNTVYLQMNSLKPEDTAVYYCAAERNKYAPYYYWGQGTQVTVSS,high polyreactivity
9,QVQRVESGGGLVQEGGSLRLSCAASGRIFGYYAMGWYRQAPGKERELVAVITGNGSTYYADSVKGRFTISRDNAKNTVYLQRNSLNPEETAVYYCAARYVFVVRGRTVPRYYYWGQGTQVTVSS,high polyreactivity
10,QVQLVESGGGLVQAGGSLRLSCAPSGSTLYRNAMGWYRQAPGQDRELVAAINYRGTRTYDADSVKGRFTISRDTAKNTVYLQMNSLQPEDTAVYFCAKDYSQFVTYPYDYWGQGTQVTVSS,low polyreactivity
11,QVQLVESGGGLVQAGGSLRLSCAASGSIFVDNAMGWYRQAPGKERELVAVITLRSGSTNYADSVKGRFTISRDNAKNTVYLQMNSLKPEDTAVYYCAADETYHDYQRDTDDDYWGQGTQVTVSS,low polyreactivity
12,QVQLVESAGGLVHAGGSLRLSCAASGFNFGFNAMGWDRQAPGKERELVAVISARGGRTYYADSVKGRFTISRDNAKNSVYLQMNSLKPEDSAVYYSAADDFFRYFFTHWVGDDYWGQGTQVSVSS,low polyreactivity
13,QVQHVESGGGLVQAGGSLRLSCAASGRTFKYYAMGWYRQAPGKERELVAAISSRGGSTYYADSVKGRFTISRDNAKNTVYLQMNSLKPEDTAVYYCAKGTYLSTSTVANDYWGQGTQVTVSS,high polyreactivity
14,QVQLVESGGGLVQAGGSLRLSCAASGITFNYYAMGWYRQAPGKERELVAVISSSGGRTYYADSVKGRFTISRDNAKNTVYFQMNSLKPEDTAVYYCGAGCSVAFYYWGQGTQVTVSS,high polyreactivity
15,QVQLVESGGGLVQAGGSLRLSCAASGRIFWKYTMGWYRQAPGKERELVAAIRSGGGSTYYADSVKGRFTISRDNAKNTVYLQLNSLKPEDTAFYYCAAEPSQRYPWSGYDYWGQGTQVTVSS,low polyreactivity
16,QVQLVESGGGLVQAGGSLRLSCDASGSIFKLNAMGWYRQAPGKERELVAAITSSGDSTYYADSVKGRFTISRDNAKNTVYLQMNSLKPEDTAVFYCNREDAGIMDYWGQGTHVTVSS,low polyreactivity
17,QVQIVESGGGLVQAGGSLRLSCAASGSTFYEYAMGWYRQAPGKERELVATITSGGRTYYADSVKGRFTISRDNAKNTVYLQMNSLKPEDTAVYYCAAAGKGRFHFRSTMDYWGQGSQVTVSS,high polyreactivity
18,QVQLVESGGGLVQAGGSLRLSCAASGSIFTFYAMGWYRQAPVKERELVAGIRWRGGTSTFYADSVKGRFTISRDNAKNTVYLQMNSLKPEDTAVYYCAAKRRTGGNGYWGQGTQVTVSS,high polyreactivity
19,QVQLVESGGGLVQAGGSLRLSCAASGIIFGAYAMGWYRQAPGKERELVAAITYSSGSTYYADSVKGRFTISRDNAKNTVYLQMNRLKPEDTAVYYCAKTNFSQSSRSNYDYWGQGTQVTVSS,low polyreactivity
20,QVQLVESGGGLVQAGGSLRLSCAASGLTFKSYAMGWYRQAPGKERELVAVISSSGGRTYYADSVKGRFTISRDNAKNTVYLQMNSLKPEDTAVYYCAADGSYGKWGGHAMYYWGQGTQVTVSS,high polyreactivity
21,QVQLEESGGGLVQAGGSLRLSCAASGYTFATYAMGWSRQAPGKERELVAAISQGGDRTNYADSVKGRFTISRDNAKITVYLQMNSLKPEDTSVYYCAVRYASRQSRFYYWGQGTQVTVSS,high polyreactivity
